Test results reported in patent US20240376151A1, “STAPLED PEPTIDES AND METHODS THEREOF” (FOG PHARMACEUTICALS, INC., priority 2022, published 2024).

Target: T1, beta-catenin (Homo sapiens, UniProt P35222)
T1 construct: made in house; host or cells: E. coli BL21 (DE3) pLysS
T1 sequence (P35222 134-665): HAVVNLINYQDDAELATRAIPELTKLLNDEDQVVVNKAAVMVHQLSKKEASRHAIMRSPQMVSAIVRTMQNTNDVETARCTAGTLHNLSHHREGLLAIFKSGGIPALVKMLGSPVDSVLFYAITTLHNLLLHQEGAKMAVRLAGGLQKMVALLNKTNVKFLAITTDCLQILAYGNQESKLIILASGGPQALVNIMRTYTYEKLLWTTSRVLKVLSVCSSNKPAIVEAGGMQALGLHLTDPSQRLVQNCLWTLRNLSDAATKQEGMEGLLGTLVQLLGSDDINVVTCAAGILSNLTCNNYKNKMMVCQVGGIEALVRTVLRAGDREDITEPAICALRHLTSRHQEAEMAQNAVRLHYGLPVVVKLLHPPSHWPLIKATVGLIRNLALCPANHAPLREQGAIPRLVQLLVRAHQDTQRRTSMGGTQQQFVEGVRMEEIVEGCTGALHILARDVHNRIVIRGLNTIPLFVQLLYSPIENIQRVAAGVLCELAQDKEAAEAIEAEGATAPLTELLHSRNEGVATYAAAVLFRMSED
Assay: Phage Library Screening with NGS, beta-catenin
Type: binding
Conditions: for Target Concentration 10 (phage screen NGS readout): beta-catenin target concentration 10; for Target Concentration 10 (phage screen NGS readout) / Target Concentration 30 (phage screen NGS readout) / Target Concentration 100 (phage screen NGS readout) / Target Concentration 300 (phage screen NGS readout): no competitor; for Target Concentration 30 (phage screen NGS readout): beta-catenin target concentration 30; for Target Concentration 100 (phage screen NGS readout): beta-catenin target concentration 100; for Target Concentration 300 (phage screen NGS readout): beta-catenin target concentration 300; for Target Concentration 1000 (phage screen NGS readout): beta-catenin target concentration 1000

Sequence | Target Concentration BLANK (phage screen NGS readout) (first column) | Target Concentration BLANK (phage screen NGS readout) (fourth column) | Target Concentration BLANK (phage screen NGS readout) (second column) | Target Concentration BLANK (phage screen NGS readout) (third column) | Target Concentration 10 (phage screen NGS readout) | Target Concentration 30 (phage screen NGS readout) | Target Concentration 100 (phage screen NGS readout) | Target Concentration 300 (phage screen NGS readout) | Target Concentration 1000 (phage screen NGS readout) (first 1000 column) | Target Concentration 1000 (phage screen NGS readout) (second 1000 column)
DPAVMACYEAAFQCAYW | 0 | 0 | 0 | 1 | 0 | 0 | 0 | 4 | 12 | 0
DPAVVECYEAAYTCQYI | 0 | 0 | 0 | 0 | 0 | 0 | 0 | 0 | 0 | 13
DPAWILCDWAAMHCELV | 0 | 0 | 0 | 0 | 0 | 0 | 2 | 3 | 1 | 18
DPAILDCQIAAIECEFA | 0 | 1 | 0 | 0 | 0 | 22 | 76 | 68 | 139 | 56
DPAEVECMLAAHVCRAF | 0 | 0 | 0 | 0 | 8 | 26 | 67 | 109 | 142 | 130
DPADEDCILAAHVCRHF | 0 | 0 | 0 | 0 | 0 | 6 | 11 | 29 | 25 | 21
DPAMIQCQWAAEHCELI | 0 | 0 | 1 | 0 | 0 | 0 | 4 | 33 | 19 | 42
DPAQQDCTLAAHVCRVF | 0 | 0 | 0 | 0 | 0 | 0 | 19 | 21 | 70 | 11

Other lines, results leading:

Target Concentration BLANK (phage screen NGS readout) (first column) | Target Concentration BLANK (phage screen NGS readout) (fourth column) | Target Concentration BLANK (phage screen NGS readout) (second column) | Target Concentration BLANK (phage screen NGS readout) (third column) | Target Concentration 10 (phage screen NGS readout) | Target Concentration 30 (phage screen NGS readout) | Target Concentration 100 (phage screen NGS readout) | Target Concentration 300 (phage screen NGS readout) | Target Concentration 1000 (phage screen NGS readout) (first 1000 column) | Target Concentration 1000 (phage screen NGS readout) (second 1000 column) | Sequence
0 | 0 | 0 | 0 | 0 | 1 | 0 | 10 | 39 | 3 | DPAVLDCHIAALDCHAH
0 | 0 | 0 | 0 | 0 | 0 | 31 | 42 | 40 | 51 | DPAEVDCIMAAHICVWD
0 | 0 | 0 | 0 | 0 | 1 | 22 | 67 | 140 | 55 | DPAVLECHIAAWECNHT
0 | 0 | 1 | 2 | 28 | 127 | 422 | 637 | 830 | 731 | DPAWWQCDHAALICIAE
0 | 1 | 1 | 0 | 0 | 9 | 10 | 158 | 104 | 157 | DPAVQDCEWAAIYCELI
0 | 0 | 0 | 0 | 13 | 2 | 19 | 158 | 164 | 187 | DPANVECEWAAIHCSLV
0 | 0 | 0 | 0 | 0 | 2 | 2 | 3 | 11 | 9 | DPARMTCYEAAFRCQYY
0 | 0 | 0 | 0 | 0 | 2 | 47 | 39 | 49 | 73 | DPAVEDCVLAAHVCAWF
0 | 0 | 0 | 0 | 0 | 0 | 1 | 6 | 4 | 5 | DPAVLQCYEAAFICEYM
0 | 0 | 0 | 0 | 0 | 0 | 11 | 13 | 12 | 23 | DPAHLMCHYAAWDCRDE
0 | 0 | 0 | 0 | 0 | 0 | 21 | 15 | 46 | 22 | DPAEADCMMAAHICSNI
